Consider six sequences from the DeepSol protein solubility set.

This data set in a line: soluble on expression in E. coli; label from the status in PepcDB or PDB records.
As to “SNAMQIVKKEKFILKEYTFENGRTIPVQMGYETYGTLNRERSNVILICHYFSATSHAAGKYTAHDEESGWWDGLIGPGKAIDTNQYFVICTDNLCNVQVKNPHVITTGPKSINPKTGDEYAMDFPVFTFLDVARMQCELIKDMGIARLHAVMGPSAGGMIAQQWAVHYPHMVERMIGVITNPQNPIITSVNVAQNAIEAIRLDPSWKGGKYGEEQPMKGLQLANRMMFMNAFDEHFYETTYPRNSIEVEPYEKVSSLTSFEKEINKLTYRSIELVDANSWMYTAKAVLLHDIAHGFSSLEEALSNVEANVLMIPCKQDLLQPSRYNYKMVDLLQKQGKYAEVYEIESINGHMAGVFDIHLFEKKVYEFLNRKVSSFV”, the “soluble on expression in E. coli” value was “soluble”.
Under “VGYGDITQVETSGASSKTSRQDKLEYDGVRASHTMAQTDAGRMEKYKSFINNVAKKHVVDPAVIAAIISRESRAGNVIFNTTPPGWGDNYNGFGLMQVDKRYHEPRGAWNSEEHIDQATGILVNFIQLIQKKFPSWSTEQQLKGAIAAYNTGDGRVESYESVDSRTTGKDYSNDVVARAQWYKKNGF” stands “soluble”; under “MKSIVEKLNLTKYQQLVILNRPQGEYLSEFASAAQQLPSEPVELIFAFVKTMAEFQEIVSMVIEGQHLVENGLLYVAYPKKGNKMYPTFVHRDEIFPTLQVNEADGYIKGSTLKFNRMVSLDETFTVVGMKNVLKKLAKNQTSSAVGDYVQYLPEIEALVQTEPAAAATFAALTPGYQKEWARYVFSAKRAETRKKRQTEMLVILKEGYKTKALYQQRKK”, “not soluble”.
The entry for “MSLTQTAFRSQLLTFNGDPAQSSQAAIYETDGLLIVDDGKVVAAGPYAQLAATLARDAIVHELRDKLIVPGFIDTHIHYPQTDMIASPAPGLLPWLDKYTFPTERQFGDPEHAREVADFFVDELLACGTTSALVYCTVHKQSADALFAASDARDLRMIAGKVLMDRNCPEFLRDTAQSGYDDSAELIDRWHGKGRQMYALTPRFAPTSTEAQLEACGELARRHPDVFVQSHVAENVDEVKWVGELFPGHRSYLDIYDRYGLLRPRAVYGHCIHLDDEDRRRMAETRTVVAHCPTSNFFLGSGLFDFDKAGEYDVPVTLATDVGGGTSFSMLQTMNEAHKVARLSGHHLTATRMFWLATAGAAQALDLADTVGTLAPRTEADFVVLDPQATPLLARRTKRADSLEELLFAFALLGDDRAVYRTYAAGQLVHERGAAPRPAAEGHHHHHH” is “soluble”; for “MKIKTILTPVTCALLISFSAHATNADNYKNVINRTGAPQYMKDYDYDDHQRFNPFFDLGAWHGHLLPDGPNTMGGFPGVALLTEEYINFMASNFDRLTVWQDGKKVNFTLEAYNIPGALVQKLTAKDVQVEMTLRFATPRTSLLETKIISNKPLDLVWDGELLEKLEAKEGKPLSDKTIAGEYPDYQRKISATRDGLKVTFGKVRATWDLLTSGESEYQVHKSLPVQTEINGNRFTSKAHINGSTTLYTTYSHLLTSQEVSKEQMQIRDILARPAFYLTASQQRWEEYLKKGLTNPDATPEQTRVAVKAIETLNGNWRSPGGAVKYNTVTPSVTGRWFSGNQTWPWDTWKQAFAMAHFNPDIAKENIRAVFSWQIQPGDSVRPQDVGFVPDLIAWNLSPERGGDGGNWNERNTKPSLAAWSVMEVYNVTQDKTWVAEMYPKLVAYHDWWLRNRDHNGNGVPEYGATRDKAHNTESGEMLFTVKKGNKEETQSGLNNYARVVEKGQYDSLEIPAQVAASWESGRDDAAVFGFIDKEQLDKYVASGGKRSDWTVKFAENRSQDGTLLGYSLLQESVDQASYMYSDNHYLAEMATILGKPEEAKRYRQLAQQLADYINTCMFDPATQYFYDVRIEDKPLANGCAGKPIVERGKGPEGWSPLFNGAATQANADAVVKVMLDPKEFNTFVPLGTAALTNPAFGADIYWRGRVWVDQFWFGLKGMERYGYRDDALKLADTFFRHAKGLTADGPIQENYNPLTGAQQGAPNFSWSAAHFYMLYNDFFRKQ” it is “not soluble”; for “MSNTVLVSGASGFIALHILSQLLKQDYKVIGTVRSHEKEAKLLRQFQHNPNLTLEIVPDISHPNAFDKVLQKRGREIRYVLHTASPFHYDTTEYEKDLLIPALEGTKNILNSIKKYAADTVERVVVTSSCTAIITLAKMDDPSVVFTEESWNEATWESCQIDGINAYFASKKFAEKAAWEFTKENEDHIKFKLTTVNPSLLFGPQLFDEDVHGHLNTSCEMINGLIHTPVNASVPDFHSIFIDVRDVALAHLYAFQKENTAGKRLVVTNGKFGNQDILDILNEDFPQLRGLIPLGKPGTGDQVIDRGSTTDNSATRKILGFEFRSLHESVHDTAAQILKKENRL” it is “not soluble”.
